Laboratory results taken from paper PMC9350882, “Molecular and Biochemical Differences of the Tandem and Cold-Adapted PET Hydrolases Ple628 and Ple629, Isolated From a Marine Microbial Consortium” (Frontiers in Bioengineering and Biotechnology, 2022).

Tested on: CC(=O)Oc1ccc([N+](=O)[O-])cc1
Assay: purified protein
Assay type: biochemical, Marinobacter sp.
Conditions: PBS pH 7.0, 20 °C, 0.1-2.5 mM substrate

Substance | Km [µM] | kcat [s⁻¹]
Ple628 (Marinobacter sp.) | 1800 | 4.498
Ple629 (Marinobacter sp.) | 2100 | 4.742
